The source of these data is patent US20200255478A1, “NOVEL COMPOUNDS ACTIVATING THE NRF2 PATHWAY” (Almirall, S.A., priority 2017, published 2020).

Values joined by “and” are separate entries in the source; they are usually repeats but may differ in a detail not shown here. Identical values can stand only once. Positions of bridges follow the written chain, without caps; N, C: chain ends. Non-standard residues stand in square brackets, D forms with d. βAla = NCCC(=O)O

For the assay, the target named is Keap1-Maltose Binding Protein (MBP tag), Q14145. Description: TR-FRET competition vs ETGE-biotin; grade band per paragraph 615. (In general: Time-resolved FRET reads energy transfer from a long-lived donor to a nearby acceptor.)
Keap1-Maltose Binding Protein (MBP tag), Q14145, sequence (Q14145 321-609 limits assumed): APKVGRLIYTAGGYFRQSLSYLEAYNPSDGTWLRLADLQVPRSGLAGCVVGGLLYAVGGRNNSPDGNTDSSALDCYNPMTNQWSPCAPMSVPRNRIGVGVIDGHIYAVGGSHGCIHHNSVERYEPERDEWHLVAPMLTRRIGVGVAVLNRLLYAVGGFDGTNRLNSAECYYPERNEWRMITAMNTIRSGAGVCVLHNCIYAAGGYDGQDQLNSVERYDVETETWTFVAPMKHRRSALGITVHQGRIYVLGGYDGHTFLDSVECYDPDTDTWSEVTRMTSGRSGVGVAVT

B1: {[Stearyl-βAla-Leu-Gln-Cys(&1)-Asp-Pro-Glu-Thr-Gly-Glu-Cys(&2)-Leu-Pro-βAla-Arg-Lys-Lys-Arg-Arg-Gln- (peptide)
peptide: Stearyl-[βAla]LQCDPETGECLP[βAla]RKKRRQRRR-NH2
modifications: bridge 4-11; not fully specified (bridges); also: Cys4 and Cys11 cyclised, linker not given here
As a reminder, the IC50 is the point on the concentration scale where inhibition reaches its midpoint. Higher therefore signals a need for much substance. B1: the IC50 was < 100 nM and > 1 nM.
